Assay results as given in patent publication US20250230251A1 (Bristol-Myers Squibb, published 2025).

Assays:
[1] = molecular target: T1, huIL-18Rβ-HisAvi (human, UniProt O95256 20-356, biotinylated in the Octet blocking assay); assay: SPR T200, pH 7.4; sample stored at pH 8, T0
T1 construct: Soluble analyte in all SPR runs; captured on streptavidin sensors in the Octet assay; also called human IL-18Rβ; human IL-18Rβ-Avi-His
T1 sequence: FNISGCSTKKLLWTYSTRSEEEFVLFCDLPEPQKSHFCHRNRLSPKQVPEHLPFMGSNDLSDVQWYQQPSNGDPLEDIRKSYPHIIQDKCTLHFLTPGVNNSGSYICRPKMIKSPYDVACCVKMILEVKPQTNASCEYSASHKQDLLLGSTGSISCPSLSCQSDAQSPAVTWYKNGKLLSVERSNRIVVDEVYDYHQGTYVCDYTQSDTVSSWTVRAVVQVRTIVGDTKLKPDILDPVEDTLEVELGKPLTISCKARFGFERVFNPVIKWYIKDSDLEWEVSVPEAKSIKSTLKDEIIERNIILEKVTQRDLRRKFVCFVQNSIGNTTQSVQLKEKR

[2] = molecular target: T2, cyIL-18Rβ-HisAvi (cynomolgus monkey); assay: SPR T200, mAb on anti-hFc, 37C, pH 6
T2 construct: Soluble analyte in SPR; also called cyno IL-18Rβ; cynomolgus monkey IL-18Rβ
T2 chain: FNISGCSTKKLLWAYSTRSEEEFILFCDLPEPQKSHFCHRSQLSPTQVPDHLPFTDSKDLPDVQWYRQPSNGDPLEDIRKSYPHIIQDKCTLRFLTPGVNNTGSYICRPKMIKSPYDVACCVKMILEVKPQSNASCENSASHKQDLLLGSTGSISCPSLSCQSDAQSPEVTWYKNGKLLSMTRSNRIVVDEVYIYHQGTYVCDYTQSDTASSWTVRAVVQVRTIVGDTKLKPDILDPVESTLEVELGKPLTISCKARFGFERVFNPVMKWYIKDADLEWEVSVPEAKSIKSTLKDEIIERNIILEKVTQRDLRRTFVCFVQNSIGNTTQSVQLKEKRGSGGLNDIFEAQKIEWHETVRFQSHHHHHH

[3] = molecular target: T3, human IL-18Rβ on cells (human, UniProt O95256 20-599); assay: cell-based or functional assay
T3 sequence: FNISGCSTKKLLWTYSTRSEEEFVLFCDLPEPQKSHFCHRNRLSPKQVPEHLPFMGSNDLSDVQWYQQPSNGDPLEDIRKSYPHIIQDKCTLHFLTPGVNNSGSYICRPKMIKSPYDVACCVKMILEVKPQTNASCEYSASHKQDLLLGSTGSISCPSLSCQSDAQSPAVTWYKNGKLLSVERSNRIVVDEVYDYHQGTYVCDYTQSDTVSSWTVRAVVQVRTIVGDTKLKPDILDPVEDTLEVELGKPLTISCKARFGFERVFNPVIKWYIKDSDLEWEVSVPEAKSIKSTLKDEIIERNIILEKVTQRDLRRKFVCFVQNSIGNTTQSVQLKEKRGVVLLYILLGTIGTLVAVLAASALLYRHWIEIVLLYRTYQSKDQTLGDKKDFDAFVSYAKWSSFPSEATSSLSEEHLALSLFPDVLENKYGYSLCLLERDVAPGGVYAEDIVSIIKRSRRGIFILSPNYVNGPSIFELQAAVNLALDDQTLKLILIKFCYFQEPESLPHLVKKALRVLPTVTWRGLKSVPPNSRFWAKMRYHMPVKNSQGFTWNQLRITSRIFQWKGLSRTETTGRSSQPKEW

[4] = molecular target: T1, huIL-18Rβ-HisAvi; assay: SPR T200, mAb on anti-hFc, 37C, pH 7; control
[5] = molecular target: T1, huIL-18Rβ-HisAvi; assay: SPR Biacore T200, mAb captured on anti-human Fc, huIL-18Rβ-HisAvi as analyte, PBST pH 5.5, 37 °C, 1:1 Binding fit
[6] = molecular target: T2, cyIL-18Rβ-HisAvi; assay: SPR T200, mAb on anti-hFc, 37C, pH 7.4
[7] = molecular target: T1, huIL-18Rβ-HisAvi; assay: SPR T200, mAb on anti-hFc, 37C, pH 7.4
[8] = molecular target: T1, huIL-18Rβ-HisAvi; assay: SPR T200, pH 7.4; sample stored at pH 8, 4 w 40C
[9] = molecular target: T1, huIL-18Rβ-HisAvi; assay: SPR T200, pH 5 against pH 7.4
[10] = molecular target: T1, huIL-18Rβ-HisAvi; assay: SPR T200, pH 7.4; sample stored at pH 6, T0
[11] = molecular target: T1, huIL-18Rβ-HisAvi; assay: SPR T200, pH 7; sample 2 w 40C
[12] = molecular target: T1, huIL-18Rβ-HisAvi; assay: SPR T200, pH 7; sample 4 w 4C
[13] = molecular target: T1, huIL-18Rβ-HisAvi; assay: SPR T200, pH 7; sample 4 w 40C

B1: P20 (antibody, human IgG1, kappa)
heavy: QVQLQQSGPGLVKPSETLSLTCTVSGGSINNYYWSWIRQPPGKGLEWIGYIFYSGTTNYNPSLKSRVTISVDTSKNQFSLKLSSVTAADTAVYYCARDVGIAARNSYYYVMDVWGQGTTVTVSSASTKGPSVFPLAPSSKSTSGGTAALGCLVKDYFPEPVTVSWNSGALTSGVHTFPAVLQSSGLYSLSSVVTVPSSSLGTQTYICNVNHKPSNTKVDKRVEPKSCDKTHTCPPCPAPEAEGAPSVFLFPPKPKDTLMISRTPEVTCVVVDVSHEDPEVKFNWYVDGVEVHNAKTKPREEQYNSTYRVVSVLTVLHQDWLNGKEYKCKVSNKALPAPIEKTISKAKGQPREPQVYTLPPSREEMTKNQVSLTCLVKGFYPSDIAVEWESNGQPENNYKTTPPVLDSDGSFFLYSKLTVDKSRWQQGNVFSCSVMHEALHNHYTQKSLSLSPG
light: AIQLTQSPSSLSASVGDRVTITCRASQGISSALAWYQQKPGKAPKFLIYDASSLESGVPSRFSGSGSGTDFTLTISSLQPEDFATYYCQQFNSYPITFGQGTRLEIKRTVAAPSVFIFPPSDEQLKSGTASVVCLLNNFYPREAKVQWKVDNALQSGNSQESVTEQDSKDSTYSLSSTLTLSKADYEKHKVYACEVTHQGLSSPVTKSFNRGEC
notes: Human IgG
- apparent Kd (pooled screen) [1]: 1.6 nM
- apparent koff (pooled screen) [1]: 0.00035 s⁻¹
- apparent kon (pooled screen) [1]: 220000 M⁻¹ s⁻¹
- Kd [2]: 1.6 nM
- koff [2]: 0.00028 s⁻¹
- kon [2]: 180000 M⁻¹ s⁻¹
- IC50, LPS+IL-12 dependent IFNg production, human whole blood [3]: 0.7 nM
- y-max, LPS+IL-12 dependent IFNg production, human whole blood [3]: 98%
- apparent Kd (pooled screen) [4]: 0.18 nM
- apparent koff (pooled screen) [4]: 5.2e-05 s⁻¹
- apparent kon (pooled screen) [4]: 280000 M⁻¹ s⁻¹
- apparent Kd (pooled screen) [5]: 2.56 nM
- apparent koff (pooled screen) [5]: 0.000282 s⁻¹
- apparent kon (pooled screen) [5]: 110000 M⁻¹ s⁻¹
- Kd [6]: 1.4 nM
- koff [6]: 0.00024 s⁻¹
- kon [6]: 180000 M⁻¹ s⁻¹
- apparent Kd (pooled screen) [7]: 0.51 nM
- apparent koff (pooled screen) [7]: 0.00017 s⁻¹
- apparent kon (pooled screen) [7]: 330000 M⁻¹ s⁻¹
- apparent Kd (pooled screen) [8]: 1.6 nM
- apparent koff (pooled screen) [8]: 0.00038 s⁻¹
- apparent kon (pooled screen) [8]: 240000 M⁻¹ s⁻¹
- KD ratio (KD pH 5/KD pH 7) [9]: 1.08
- kd ratio (kd pH 5/kd pH 7) [9]: 0.63
- apparent Kd (pooled screen) [10]: 1.4 nM
- apparent koff (pooled screen) [10]: 0.00033 s⁻¹
- apparent kon (pooled screen) [10]: 230000 M⁻¹ s⁻¹

B2: P20-V1 (antibody, human IgG1, kappa, V domains shown)
VH: QVQLQESGPGLVKPSETLSLTCTVSGGSINNYYWSWIRQPPGKGLEWIGYIFYSGTTNYNPSLKSRVTISVDTSKNQFSLKLSSVTAADTAVYYCARDVGIAARNSYYYVMDVWGQGTTVTVSS
VL: AIQLTQSPSSLSASVGDRVTITCRASQGISSALAWYQQKPGKAPKFLIYEASSLESGVPSRFSGSGSGTDFTLTISSLQPEDFATYYCQQFNSYPITFGQGTRLEIKR
notes: Variant of P20
- Kd [11]: 0.13 nM
- koff [11]: 3.7e-05 s⁻¹
- kon [11]: 290000 M⁻¹ s⁻¹
- Kd [12]: 0.2 nM
- koff [12]: 5.7e-05 s⁻¹
- kon [12]: 280000 M⁻¹ s⁻¹
- Kd [13]: 0.5 nM
- koff [13]: 0.00014 s⁻¹
- kon [13]: 290000 M⁻¹ s⁻¹

B3: P21 (antibody, human IgG1, kappa, V domains shown)
VH: QVQLQQSGPGLVKPSETLSLTCTVSGGSISNYYWTWIRQPPGKGLEWIGYISDSGSTNYNPSLKSRVTISVDTSKNQFSLKLSSVTAADTAVYYCARETIVVRGFYFYVMDVWGQGTTVTVSS
VL: AIQLTQSPSSLSASVGDRVTITCRASQGISSALAWYQQRPGKAPKLLIYDASNWESGVPSRFSGSGSGTDFTLTISSLQPEDFATYYCQQFNSYPWTFGQGTKVEIKR
notes: Human IgG
- Kd [1]: 1.5 nM
- koff [1]: 0.00037 s⁻¹
- kon [1]: 250000 M⁻¹ s⁻¹
- Kd [2]: 11 nM
- koff [2]: 0.002 s⁻¹
- kon [2]: 180000 M⁻¹ s⁻¹
- IC50, LPS+IL-12 dependent IFNg production, human whole blood [3]: 0.3 nM
- y-max, LPS+IL-12 dependent IFNg production, human whole blood [3]: 98%
- Kd [6]: 19 nM
- koff [6]: 0.0029 s⁻¹
- kon [6]: 150000 M⁻¹ s⁻¹
- Kd [7]: 1.8 nM
- koff [7]: 0.00043 s⁻¹
- kon [7]: 240000 M⁻¹ s⁻¹
- Kd [8]: 1.9 nM
- koff [8]: 0.0005 s⁻¹
- kon [8]: 260000 M⁻¹ s⁻¹
- KD ratio (KD pH 5/KD pH 7) [9]: 1.09
- kd ratio (kd pH 5/kd pH 7) [9]: 0.79
- Kd [10]: 1.6 nM
- koff [10]: 0.00038 s⁻¹
- kon [10]: 240000 M⁻¹ s⁻¹
